The results in this text go back to paper PMC8423076.

This assay deals with SARS-CoV-2 receptor-binding domain (RBD) homodimer (SARS-CoV-2) (UniProt P0DTC2). Briefly: reducing and non-reducing SDS-PAGE.

As usually defined, the stoichiometry N is the number of molecules, sites or subunits per partner or assembly. “SARS-CoV-2 receptor-binding domain (RBD) homodimer (from UniProt P0DTC2 319-541) (domain or fragment)” registered a stoichiometry N of 2.
